Molecular target: Firefly Luciferase, heat-aggregated [luciferase: P08659]
Assay: co-sedimentation; 1.5 μM ClpG-DWB with 2 μM aggregated Luciferase in buffer A (50 mM Tris pH 7.5, 50 mM KCl, 10 mM MgCl2, 2 mM DTT), 2 mM ATP, 25 °C, 10 min; 1 μM DnaK with 0.2 μM DnaJ added to selected reactions; centrifugation at 13,000 rpm, pellet washed once; SDS-PAGE, Coomassie, ImageJ; control without aggregated Luciferase

Substance: P. aeruginosa ClpGGI-E383A/E732A (enzyme)
- fold reduction of binding on addition of DnaK (with DnaJ): 1.86 fold
